Laboratory results published in publication doi:10.1101/2024.07.01.601608 (bioRxiv, 2024).

B1: MED14 (endogenous) (natural protein)
chain: not shown
B2: MED17 (endogenous) (natural protein)
chain: MSGVRAVRISIESACEKQVHEVGLDGTETYLPPLSMSQNLARLAQRIDFSQGSGSEEEEAAGTEGDAQEWPGAGSSADQDDEEGVVKFQPSLWPWDSVRNNLRSALTEMCVLYDVLSIVRDKKFMTLDPVSQDALPPKQNPQTLQLISKKKSLAGAAQILLKGAERLTKSVTENQENKLQRDFNSELLRLRQHWKLRKVGDKILGDLSYRSAGSLFPHHGTFEVIKNTDLDLDKKIPEDYCPLDVQIPSDLEGSAYIKVSIQKQAPDIGDLGTVNLFKRPLPKSKPGSPHWQTKLEAAQNVLLCKEIFAQLSREAVQIKSQVPHIVVKNQIISQPFPSLQLSISLCHSSNDKKSQKFATEKQCPEDHLYVLEHNLHLLIREFHKQTLSSIMMPHPASAPFGHKRMRLSGPQAFDKNEINSLQSSEGLLEKIIKQAKHIFLRSRAAATIDSLASRIEDPQIQAHWSNINDVYESSVKVLITSQGYEQICKSIQLQLNIGVEQIRVVHRDGRVITLSYQEQELQDFLLSQMSQHQVHAVQQLAKVMGWQVLSFSNHVGLGPIESIGNASAITVASPSGDYAISVRNGPESGSKIMVQFPRNQCKDLPKSDVLQDNKWSHLRGPFKEVQWNKMEGRNFVYKMELLMSALSPCLL
B3: MED22 (endogenous) (natural protein)
chain: MAQQRALPQSKETLLQSYNKRLKDDIKSIMDNFTEIIKTAKIEDETQVSRATQGEQDNYEMHVRAANIVRAGESLMKLVSDLKQFLILNDFPSVNEAIDQRNQQLRTLQEECDRKLITLRDEISIDLYELEEEYYSSSSSLCEANDLPLCEAYGRLDLDTDSADGLSAPLLASPEPSAGPLQVAAPAHSHAGGPGPTEHA
B4: MED19 (endogenous) (natural protein)
chain: MENFTALFGAQADPPPPPTALGFGPGKPPPPPPPPAGGGPGTAPPPTAATAPPGADKSGAGCGPFYLMRELPGSTELTGSTNLITHYNLEQAYNKFCGKKVKEKLSNFLPDLPGMIDLPGSHDNSSLRSLIEKPPILSSSFNPITGTMLAGFRLHTGPLPEQCRLMHIQPPKKKNKHKHKQSRTQDPVPPETPSDSDHKKKKKKKEEDPDRKRKKKEKKKKKNRHSPDHPGMGSSQASSSSSLR
B5: MED18 (endogenous) (natural protein)
chain: MEAPPVTMMPVTGGTINMMEYLLQGSVLDHSLESLIHRLRGLCDNMEPETFLDHEMVFLLKGQQASPFVLRARRSMDRAGAPWHLRYLGQPEMGDKNRHALVRNCVDIATSENLTDFLMEMGFRMDHEFVAKGHLFRKGIMKIMVYKIFRILVPGNTDSTEALSLSYLVELSVVAPAGQDMVSDDMKNFAEQLKPLVHLEKIDPKRLM
B6: MED10 (endogenous) (natural protein)
chain: MAEKFDHLEEHLEKFVENIRQLGIIVSDFQPSSQAGLNQKLNFIVTGLQDIDKCRQQLHDITVPLEVFEYIDQGRNPQLYTKECLERALAKNEQVKGKIDTMKKFKSLLIQELSKVFPEDMAKYRSIRGEDHPPS
B7: MED6 (endogenous) (natural protein)
chain: MAAVDIRDNLLGISWVDSSWIPILNSGSVLDYFSERSNPFYDRTCNNEVVKMQRLTLEHLNQMVGIEYILLHAQEPILFIIRKQQRQSPAQVIPLADYYIIAGVIYQAPDLGSVINSRVLTAVHGIQSAFDEAMSYCRYHPSKGYWWHFKDHEEQDKVRPKAKRKEEPSSIFQRQRVDALLLDLRQKFPPKFVQLKPGEKPVPVDQTKKEAEPIPETVKPEEKETTKNVQQTVSAKGPPEKRMRLQ
B8: MED31 (endogenous) (natural protein)
chain: MAAAVAMETDDAGNRLRFQLELEFVQCLANPNYLNFLAQRGYFKDKAFVNYLKYLLYWKDPEYAKYLKYPQCLHMLELLQYEHFRKELVNAQCAKFIDEQQILHWQHYSRKRMRLQQALAEQQQQNNTSGK
B9: recombinant human CCNC-6xHis (baculovirus) (natural protein)
chain: MAGNFWQSSHYLQWILDKQDLLKERQKDLKFLSEEEYWKLQIFFTNVIQALGEHLKLRQQVIATATVYFKRFYARYSLKSIDPVLMAPTCVFLASKVEEFGVVSNTRLIAAATSVLKTRFSYAFPKEFPYRMNHILECEFYLLELMDCCLIVYHPYRPLLQYVQDMGQEDMLLPLAWRIVNDTYRTDLCLLYPPFMIALACLHVACVVQQKDARQWFAELSVDMEKILEIIRVILKLYEQWKNFDERKEMATILSKMPKPKPPPNSEGEQGPNGSQNSSYSQS
B10: CCNC (endogenous) (natural protein)
chain: B9 chain

Legend:
[1] = target: MED13L (endogenous) (human (endogenous in 293-F), UniProt Q71F56 1-2210); assay: cross-linking
MED13L (endogenous), sequence (Q71F56 whole entry): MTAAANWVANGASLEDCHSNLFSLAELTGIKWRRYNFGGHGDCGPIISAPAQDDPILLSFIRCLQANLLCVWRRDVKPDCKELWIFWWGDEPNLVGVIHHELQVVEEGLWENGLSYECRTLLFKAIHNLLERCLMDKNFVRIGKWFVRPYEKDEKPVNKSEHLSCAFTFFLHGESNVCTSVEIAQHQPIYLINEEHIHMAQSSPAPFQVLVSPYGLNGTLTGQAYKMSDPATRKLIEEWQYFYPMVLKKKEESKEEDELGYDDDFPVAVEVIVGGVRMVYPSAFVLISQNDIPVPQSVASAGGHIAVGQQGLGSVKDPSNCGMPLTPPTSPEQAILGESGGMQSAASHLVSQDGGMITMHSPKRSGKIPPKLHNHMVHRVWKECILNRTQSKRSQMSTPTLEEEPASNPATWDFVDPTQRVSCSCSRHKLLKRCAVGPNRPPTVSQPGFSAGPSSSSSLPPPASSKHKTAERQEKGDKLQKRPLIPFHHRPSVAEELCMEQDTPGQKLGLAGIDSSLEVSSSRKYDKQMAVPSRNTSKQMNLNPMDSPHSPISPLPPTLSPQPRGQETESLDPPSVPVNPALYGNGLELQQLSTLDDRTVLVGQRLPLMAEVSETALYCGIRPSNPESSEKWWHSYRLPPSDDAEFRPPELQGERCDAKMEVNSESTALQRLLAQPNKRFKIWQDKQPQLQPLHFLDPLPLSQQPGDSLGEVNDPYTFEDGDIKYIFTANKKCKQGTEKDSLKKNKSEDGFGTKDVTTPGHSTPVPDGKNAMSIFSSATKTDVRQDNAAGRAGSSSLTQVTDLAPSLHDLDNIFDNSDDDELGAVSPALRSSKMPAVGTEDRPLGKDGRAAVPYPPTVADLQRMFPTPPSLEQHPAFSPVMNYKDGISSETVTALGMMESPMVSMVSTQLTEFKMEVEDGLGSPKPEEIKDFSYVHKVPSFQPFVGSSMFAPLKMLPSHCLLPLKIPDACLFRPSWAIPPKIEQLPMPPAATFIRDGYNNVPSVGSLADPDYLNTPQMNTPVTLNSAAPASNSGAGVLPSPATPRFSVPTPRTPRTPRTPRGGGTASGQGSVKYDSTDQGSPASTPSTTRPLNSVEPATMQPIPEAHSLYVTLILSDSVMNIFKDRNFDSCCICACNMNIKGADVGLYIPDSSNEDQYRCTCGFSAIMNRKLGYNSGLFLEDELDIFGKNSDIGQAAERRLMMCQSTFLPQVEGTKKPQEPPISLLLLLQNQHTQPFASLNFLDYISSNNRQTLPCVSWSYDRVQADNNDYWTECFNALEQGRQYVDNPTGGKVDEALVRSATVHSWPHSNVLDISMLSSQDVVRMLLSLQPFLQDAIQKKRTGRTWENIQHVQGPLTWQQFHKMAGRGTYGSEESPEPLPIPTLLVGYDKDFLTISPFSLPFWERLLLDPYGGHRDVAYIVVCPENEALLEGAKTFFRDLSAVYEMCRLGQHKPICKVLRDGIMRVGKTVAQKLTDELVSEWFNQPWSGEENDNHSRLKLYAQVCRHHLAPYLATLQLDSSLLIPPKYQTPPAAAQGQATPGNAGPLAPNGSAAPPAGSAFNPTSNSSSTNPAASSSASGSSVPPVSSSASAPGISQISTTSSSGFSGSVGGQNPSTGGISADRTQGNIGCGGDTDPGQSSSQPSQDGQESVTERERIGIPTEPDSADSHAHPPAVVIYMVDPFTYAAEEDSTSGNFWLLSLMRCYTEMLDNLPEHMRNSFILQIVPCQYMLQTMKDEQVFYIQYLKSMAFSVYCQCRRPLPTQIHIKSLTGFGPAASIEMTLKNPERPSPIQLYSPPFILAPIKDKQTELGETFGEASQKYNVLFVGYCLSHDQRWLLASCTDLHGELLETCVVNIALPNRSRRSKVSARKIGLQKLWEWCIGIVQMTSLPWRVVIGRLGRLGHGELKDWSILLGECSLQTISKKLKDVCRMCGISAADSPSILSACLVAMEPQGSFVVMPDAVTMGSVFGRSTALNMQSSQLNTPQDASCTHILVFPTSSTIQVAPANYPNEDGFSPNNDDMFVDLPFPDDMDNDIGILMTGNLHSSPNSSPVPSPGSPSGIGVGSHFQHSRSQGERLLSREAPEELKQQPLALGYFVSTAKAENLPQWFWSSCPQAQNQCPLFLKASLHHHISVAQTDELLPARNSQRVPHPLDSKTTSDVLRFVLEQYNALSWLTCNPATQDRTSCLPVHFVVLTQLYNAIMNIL

[2] = target: MED12 (endogenous) (human (endogenous in 293-F), UniProt Q93074 1-2177); assay: cross-linking
[3] = target: T1, MED13 (endogenous) (human (endogenous in 293-F), UniProt Q9UHV7 1-2174); assay: cryo-EM structure
T1 sequence (Q9UHV7 whole entry): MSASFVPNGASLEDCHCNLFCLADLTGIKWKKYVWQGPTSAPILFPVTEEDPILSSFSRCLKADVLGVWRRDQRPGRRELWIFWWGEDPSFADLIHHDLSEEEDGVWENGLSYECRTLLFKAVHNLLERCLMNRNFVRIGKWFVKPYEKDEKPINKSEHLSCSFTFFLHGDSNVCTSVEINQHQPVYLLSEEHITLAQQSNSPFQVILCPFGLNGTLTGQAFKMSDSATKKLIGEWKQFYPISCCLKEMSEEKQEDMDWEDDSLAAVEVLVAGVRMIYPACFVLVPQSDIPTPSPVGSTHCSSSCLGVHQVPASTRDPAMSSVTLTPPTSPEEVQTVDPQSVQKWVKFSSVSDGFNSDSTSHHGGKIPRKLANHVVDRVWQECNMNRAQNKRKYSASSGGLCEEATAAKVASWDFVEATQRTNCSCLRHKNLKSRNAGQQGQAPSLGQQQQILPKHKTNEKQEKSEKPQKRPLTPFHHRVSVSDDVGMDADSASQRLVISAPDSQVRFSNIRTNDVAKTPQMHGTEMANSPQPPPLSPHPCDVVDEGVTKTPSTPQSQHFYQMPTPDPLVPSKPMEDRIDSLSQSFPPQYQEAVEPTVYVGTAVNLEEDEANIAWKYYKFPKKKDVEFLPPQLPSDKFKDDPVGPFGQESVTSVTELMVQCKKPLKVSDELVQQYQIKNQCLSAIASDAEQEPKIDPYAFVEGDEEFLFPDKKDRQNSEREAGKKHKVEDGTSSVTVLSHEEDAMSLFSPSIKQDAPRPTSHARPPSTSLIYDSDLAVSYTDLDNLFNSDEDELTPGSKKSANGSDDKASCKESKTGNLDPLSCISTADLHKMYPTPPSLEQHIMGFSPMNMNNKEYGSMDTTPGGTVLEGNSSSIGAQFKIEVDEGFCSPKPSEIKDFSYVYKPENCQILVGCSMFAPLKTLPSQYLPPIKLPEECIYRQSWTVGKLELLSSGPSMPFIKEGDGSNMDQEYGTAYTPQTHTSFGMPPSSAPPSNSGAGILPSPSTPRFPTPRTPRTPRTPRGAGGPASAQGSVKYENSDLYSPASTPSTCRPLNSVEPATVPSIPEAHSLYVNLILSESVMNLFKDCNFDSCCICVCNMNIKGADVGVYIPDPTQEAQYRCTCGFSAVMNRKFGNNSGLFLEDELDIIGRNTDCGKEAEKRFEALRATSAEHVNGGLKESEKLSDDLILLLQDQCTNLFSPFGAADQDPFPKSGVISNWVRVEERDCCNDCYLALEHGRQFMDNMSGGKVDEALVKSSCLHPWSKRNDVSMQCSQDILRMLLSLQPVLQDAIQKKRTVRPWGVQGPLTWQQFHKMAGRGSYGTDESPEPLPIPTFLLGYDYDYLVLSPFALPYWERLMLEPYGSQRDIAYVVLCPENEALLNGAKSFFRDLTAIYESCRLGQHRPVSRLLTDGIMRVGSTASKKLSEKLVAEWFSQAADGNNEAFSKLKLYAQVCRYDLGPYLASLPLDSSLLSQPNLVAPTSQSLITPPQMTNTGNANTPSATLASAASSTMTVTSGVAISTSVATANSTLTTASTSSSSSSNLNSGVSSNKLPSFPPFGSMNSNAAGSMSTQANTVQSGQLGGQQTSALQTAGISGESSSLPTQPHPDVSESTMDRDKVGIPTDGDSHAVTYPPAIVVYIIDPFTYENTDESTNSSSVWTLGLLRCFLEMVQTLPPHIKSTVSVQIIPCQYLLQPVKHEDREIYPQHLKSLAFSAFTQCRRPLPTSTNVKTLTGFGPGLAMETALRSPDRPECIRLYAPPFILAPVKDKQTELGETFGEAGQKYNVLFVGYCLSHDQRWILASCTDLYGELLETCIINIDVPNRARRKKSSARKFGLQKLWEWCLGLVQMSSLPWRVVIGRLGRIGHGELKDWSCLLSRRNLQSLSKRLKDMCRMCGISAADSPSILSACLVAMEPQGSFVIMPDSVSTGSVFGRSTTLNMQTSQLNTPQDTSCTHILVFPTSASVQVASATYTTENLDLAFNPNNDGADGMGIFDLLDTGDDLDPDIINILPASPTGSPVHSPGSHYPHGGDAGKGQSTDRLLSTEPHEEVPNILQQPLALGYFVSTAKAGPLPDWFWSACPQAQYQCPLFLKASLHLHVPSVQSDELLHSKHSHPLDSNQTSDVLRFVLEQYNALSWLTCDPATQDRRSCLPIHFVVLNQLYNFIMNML

[4] = target: B1; assay: cryo-EM structure
[5] = target: T1, MED13 (endogenous); assay: cross-linking
[6] = target: MED12L (endogenous) (human (endogenous in 293-F), UniProt Q86YW9 1-2145); assay: cross-linking
[7] = target: recombinant human CDK8-Flag (baculovirus) (human, UniProt P49336 1-464); assay: cryo-EM structure
recombinant human CDK8-Flag (baculovirus), sequence (P49336 whole entry): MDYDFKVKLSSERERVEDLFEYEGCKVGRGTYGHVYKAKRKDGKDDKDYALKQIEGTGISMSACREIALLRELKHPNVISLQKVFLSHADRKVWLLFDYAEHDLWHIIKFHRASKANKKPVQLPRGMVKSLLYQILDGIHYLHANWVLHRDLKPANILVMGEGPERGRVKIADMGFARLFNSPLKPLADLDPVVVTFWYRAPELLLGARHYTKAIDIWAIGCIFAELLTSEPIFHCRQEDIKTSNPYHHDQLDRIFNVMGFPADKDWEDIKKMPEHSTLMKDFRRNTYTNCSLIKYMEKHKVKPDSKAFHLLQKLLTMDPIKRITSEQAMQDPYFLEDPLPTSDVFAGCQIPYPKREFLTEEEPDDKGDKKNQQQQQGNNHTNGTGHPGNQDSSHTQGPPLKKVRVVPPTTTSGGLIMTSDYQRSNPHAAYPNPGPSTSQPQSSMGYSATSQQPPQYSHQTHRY

[8] = target: recombinant human MED12-HA (baculovirus) (human, UniProt Q93074 1-2177); assay: cryo-EM structure

| Binder | binding result [1] | binding result [2] | binding result [5] | also measured |
| --- | --- | --- | --- | --- |
| B1 | binds | – | – | – |
| B2 | binds | – | – | – |
| B3 | binds | – | – | – |
| B4 | – | binds | – | binding result [3]: binds; binding result [4]: binds |
| B5 | binds | – | – | – |
| B6 | – | binds | binds | binding result [6]: binds; binding result [4]: binds |
| B7 | binds | – | binds | – |
| B8 | – | – | binds | – |
| B9 | – | – | – | binding result [7]: binds; binding result [8]: binds |
| B10 | – | binds | – | – |
